In publication PMC5458078, “Global mapping of CARM1 substrates defines enzyme specificity and substrate recognition” (Nature Communications, 2017):

Tests used:
HEK293T cells = test: Western blot of FLAG-tagged TET2 with ADMA antibodies, wild type vs CARM1 KO; assay type: cell-based
Experimental: TET2, methylcytosine dioxygenase with a prominent role in DNA demethylation frequently mutated in various human cancers, was identified among novel CARM1 substrates. To assure its correct identification, we probed FLAG-tagged TET2 with ADMA antibody in wild type and CARM1 KO HEK293T cells (Fig. 2c).
(§1) Cells were collected by trypsinization, washed with Dulbecco's phosphate buffer saline (Life Technologies, Carlsbad, CA) and lysed by suspension in lysis buffer (50 mM Tris-HCl pH 8.0, 150 mM NaCl, 10% glycerol, 0.5% Triton X-100 and 1 × protease inhibitor cocktail (Sigma-Aldrich)). After brief sonication followed by centrifugation, total protein was quantified using the BioRad Protein Assay (BioRad, Hercules, CA), and 20 μg protein was resolved by SDS–PAGE. Proteins were transferred to a nitrocellulose membrane for 1.5 h at 350 mA. Membranes were blocked with 5% nonfat milk at room temperature for 1 h and incubated overnight with diluted primary antibody at 4 °C. Membranes were then washed and incubated with HRP-conjugated secondary antibody for 1 h at room temperature. Signal was visualized by enhanced chemiluminescence reagents (Thermo Scientific, Rockford, IL) and X-ray film exposure followed by scanning and digitalization. Me-PABP1 and PABP1 antibodies, me-BAF155 antibody[20] and me-MED12 antibody[30] were generated previously in the Xu lab. […]

[1] = tested on: recombinant full-length BAF155 protein; test: In vitro methylation of full-length FLAG-BAF155 by recombinant CARM1 proteins, autoradiography; assay type: biochemical; conditions: 3H-SAM, 50 mM Tris-HCl pH 8.0, 100 mM NaCl, 0.5 mM EDTA, 1–4 h, 30 °C
Experimental: The FL and N-terminal domain-deleted version of human CARM1 cDNAs, and other PRMT FL cDNAs were cloned into pFN21K Halo Tag CMV Flexi mammalian expression vector (Promega, Madison, WI) using the unique Sgfl and Pmel site[55]. To express the protein, DNA constructs were transiently transfected into HEK293T CARM1 KO cells in 15 cm dishes using transIT-LT1 reagent (Mirus Bio, Madison, WI) according to the manufacturer's protocol. Proteins were allowed to express for 48 h. Cell pellets were then collected and lysed in lysis buffer (50 mM HEPES, pH 7.5, 150 mM NaCl, 0.005% NP-40, 0.5 mM EDTA, supplemented with 1 × protease inhibitor cocktail before use). The cells were sonicated on ice using a Branson Sonifier 450 with a microtip at 35% amplitude (10 s on, 30 s off, 6 cycles). […] The resin was centrifuged at 3,000 r.p.m. for 5 min, and the supernatant containing the cleaved protein was collected and protein concentration was determined using the Bradford assay (Thermo Scientific, Rockford, IL). Protein purity was assessed by running SDS–PAGE and Coomassie Blue staining.
CMX-Flag-BAF155 construct was generated by subcloning a PCR-amplified Flag-BAF155 fragment into the CMX-expression vector. […] Protein concentration was determined using Bradford assay and protein purity was assessed by SDS–PAGE and Coomassie Blue staining. […]

HEK293T CARM1 KO cells [2] = test: Rescue of endogenous BAF155 and MED12 methylation, transient transfection, western blot; assay type: cell-based; conditions: transient expression in HEK293T CARM1 KO cells
Experimental: (§2) Next, we transiently transfected FL and the two aforementioned CARM1 truncations in HEK293T CARM1 KO cells and measured substrate methylation by western blotting with ADMA antibodies.
Cells were collected by trypsinization, washed with Dulbecco's phosphate buffer saline (Life Technologies, Carlsbad, CA) and lysed by suspension in lysis buffer (50 mM Tris-HCl pH 8.0, 150 mM NaCl, 10% glycerol, 0.5% Triton X-100 and 1 × protease inhibitor cocktail (Sigma-Aldrich)). After brief sonication followed by centrifugation, total protein was quantified using the BioRad Protein Assay (BioRad, Hercules, CA), and 20 μg protein was resolved by SDS–PAGE. Proteins were transferred to a nitrocellulose membrane for 1.5 h at 350 mA. Membranes were blocked with 5% nonfat milk at room temperature for 1 h and incubated overnight with diluted primary antibody at 4 °C. Membranes were then washed and incubated with HRP-conjugated secondary antibody for 1 h at room temperature. Signal was visualized by enhanced chemiluminescence reagents (Thermo Scientific, Rockford, IL) and X-ray film exposure followed by scanning and digitalization. Me-PABP1 and PABP1 antibodies, me-BAF155 antibody[20] and me-MED12 antibody[30] were generated previously in the Xu lab. FLAG antibody (catalogue #F7425) was purchased from Sigma and used at a dilution of 1:5,000; BAF155 antibody (sc-10756) was purchased from Santa Cruz and used at a dilution of 1:1,000; MED12 antibody (ab70842) was purchased from Abcam (Cambridge, MA) and used at 1:1,000 dilution.

HEK293T CARM1 KO cells [3] = test: Total ADMA levels after transient transfection, western blot; assay type: cell-based; conditions: transient expression in HEK293T CARM1 KO cells
Experimental: as §2, §1

[4] = tested on: BAF155, MED12, PABP1, NCOA3 and TET2; test: Co-immunoprecipitation of BAF155, MED12, PABP1, NCOA3 and TET2 with FLAG-tagged CARM1, western blot; assay type: cell-based; conditions: FLAG-tagged construct transiently transfected in HEK293T CARM1 KO cells; anti-FLAG IP
Text: The structure of the N-terminal domain of CARM1 (residues 28–140) resembles those of the EVH1 domains, a subfamily of PH domains that bind proline-rich sequences. With our discovery that CARM1 substrates contain proline-rich motifs, we posited that the protein's N-terminal domain may be required for substrate recognition. To test this hypothesis, we generated three CARM1 constructs: one full-length (CARM1 FL) and two N-terminal truncations CARM1 28–608 and CARM1 140–608 (Fig. 3a). […] We transiently transfected the three FLAG-tagged CARM1 fusion constructs in HEK293T CARM1 KO cells. CARM1 was immunoprecipitated from all three cell lines using anti-FLAG M2 resin, and four known CARM1 substrates/interactors (that is, BAF155 (ref. [20]), MED12 (ref. [30]), PABP1 (ref. [36]) and NCOA3 (ref. [19])) and newly identified TET2 were detected by western blotting. […] To globally assess the magnitude of reduction in CARM1–substrate interactions induced by the loss of the EVH1 domain, we visualized overall protein changes in CARM1 immunoprecipitates by western blotting using the ADMA antibody (Fig. 3c).
as §1, with “digitalization.” for “digitalization. Me-PABP1 and PABP1 antibodies, me-BAF155 antibody[20] and me-MED12 antibody[30] were generated previously in the Xu lab.”

Molecule: TET2: FLAG-tagged TET2, methylcytosine dioxygenase
- ADMA modification of TET2 in the absence of CARM1 (HEK293T cells): complete disappearance of ADMA modification on TET2

B1: CARM1 28–608: CARM1 28–608 lacks the first, unstructured 28 residues (protein)
chain: TVSVFPGARLLTIGDANGEIQRHAEQQALRLEVRAGPDSAGIALYSHEDVCVFKCSVSRETECSRVGKQSFIITLGCNSVLIQFATPNDFCSFYNILKTCRGHTLERSVFSERTEESSAVQYFQFYGYLSQQQNMMQDYVRTGTYQRAILQNHTDFKDKIVLDVGCGSGILSFFAAQAGARKIYAVEASTMAQHAEVLVKSNNLTDRIVVIPGKVEEVSLPEQVDIIISEPMGYMLFNERMLESYLHAKKYLKPSGNMFPTIGDVHLAPFTDEQLYMEQFTKANFWYQPSFHGVDLSALRGAAVDEYFRQPVVDTFDIRILMAKSVKYTVNFLEAKEGDLHRIEIPFKFHMLHSGLVHGLAFWFDVAFIGSIMTVWLSTAPTEPLTHWYQVRCLFQSPLFAKAGDTLSGTCLLIANKRQSYDISIVAQVDQTGSKSSNLLDLKNPFFRYTGTTPSPPPGSHYTSPSENMWNTGSTYNLSSGMAVAGMPTAYDLSSVIASGSSVGHNNLIPLANTGIVNHTHSRMGSIMSTGIVQGSSGAQGSGGGSTSAHYAVNSQFTMGGPAISMASPMSIPTNTMHYGS
modifications: left off: FLAG, end not stated, kept
notes: CARM1 28–608 lacks the first, unstructured 28 residues
- Methylation of full-length BAF155 [1]: methylated recombinant full-length BAF155 protein
- Methylation of endogenous BAF155 and MED12 (HEK293T CARM1 KO cells [2]): methylation of endogenous BAF155 and MED12 was restored
- Total levels of ADMA modification (HEK293T CARM1 KO cells [3]): recovered to the level of parental cells
- Co-precipitation of BAF155, MED12, PABP1, NCOA3 and TET2 [4]: all five proteins were co-precipitated

B2: CARM1 FL: full-length CARM1, contained 608 residues (protein)
chain: MAAAAAAVGPGAGGAGSAVPGGAGPCATVSVFPGARLLTIGDANGEIQRHAEQQALRLEVRAGPDSAGIALYSHEDVCVFKCSVSRETECSRVGKQSFIITLGCNSVLIQFATPNDFCSFYNILKTCRGHTLERSVFSERTEESSAVQYFQFYGYLSQQQNMMQDYVRTGTYQRAILQNHTDFKDKIVLDVGCGSGILSFFAAQAGARKIYAVEASTMAQHAEVLVKSNNLTDRIVVIPGKVEEVSLPEQVDIIISEPMGYMLFNERMLESYLHAKKYLKPSGNMFPTIGDVHLAPFTDEQLYMEQFTKANFWYQPSFHGVDLSALRGAAVDEYFRQPVVDTFDIRILMAKSVKYTVNFLEAKEGDLHRIEIPFKFHMLHSGLVHGLAFWFDVAFIGSIMTVWLSTAPTEPLTHWYQVRCLFQSPLFAKAGDTLSGTCLLIANKRQSYDISIVAQVDQTGSKSSNLLDLKNPFFRYTGTTPSPPPGSHYTSPSENMWNTGSTYNLSSGMAVAGMPTAYDLSSVIASGSSVGHNNLIPLANTGIVNHTHSRMGSIMSTGIVQGSSGAQGSGGGSTSAHYAVNSQFTMGGPAISMASPMSIPTNTMHYGS
modifications: left off: FLAG, end not stated, kept
notes: full-length CARM1, contained 608 residues
- Methylation of full-length BAF155 [1]: methylated recombinant full-length BAF155 protein
- Methylation of endogenous BAF155 and MED12 (HEK293T CARM1 KO cells [2]): methylation of endogenous BAF155 and MED12 was restored
- Total levels of ADMA modification (HEK293T CARM1 KO cells [3]): recovered to the level of parental cells
- Co-precipitation of BAF155, MED12, PABP1, NCOA3 and TET2 [4]: all five proteins were co-precipitated
